Results published in patent US20100322948A1, “Bone morphogenetic protein (BMP)-binding domains of proteins of the repulsive guidance molecule (RGM) protein family and functional fragments thereof, and use of same” (ABBOTT GMBH & CO. KG, priority 2007, published 2010).
Ends that are not written are not given here.

T1: BMP-4 (Homo sapiens, UniProt P12644)
T1 construct: purchased R&D Systems 314-BM
T1 sequence (P12644 293-408): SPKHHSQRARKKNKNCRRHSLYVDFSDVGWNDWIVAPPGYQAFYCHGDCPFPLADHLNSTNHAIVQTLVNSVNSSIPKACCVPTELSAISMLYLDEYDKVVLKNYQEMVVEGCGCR

T2: Recombinant human BMP-4 (human, UniProt P12644 293-408)
T2 construct: Bought protein; also called hBMP-4
T2 sequence (looked up): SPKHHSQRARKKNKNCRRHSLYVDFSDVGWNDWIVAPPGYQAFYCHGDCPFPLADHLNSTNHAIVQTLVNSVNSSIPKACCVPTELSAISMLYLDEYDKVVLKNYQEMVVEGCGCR

B1: 316-386-Fc (#790) (Fc fusion)
chain: LRGCPLNQQIDFQAFHTNAEGTGARRLAAASPAPTAPETFPYETAVAKCKEKLPVEDLYYQACVFDLLTTG
notes: also called fragment #790; not shown: Factor Xa site from the vector; human IgG Fc (hIgG lambda hc 257-Stop)
B2: fragment #790: Fc fusion protein of human RGM A amino acids 316-386 (protein)
chain: LRGCPLNQQIDFQAFHTNAEGTGARRLAAASPAPTAPETFPYETAVAKCKEKLPVEDLYYQACVFDLLTTG
modifications: left off: small tags and cut ends; a dimerising Fc or GST
B3: 47-90-Fc (#785) (Fc fusion)
chain: PCKILKCNSEFWSATSGSHAPASDDTPEFCAALRSYALCTRRTA
notes: Expressed in HEK293F cells; IgK leader left out; also called fragment 47-90; not shown: Factor Xa site from the vector; human IgG Fc (hIgG lambda hc 257-Stop)

Tests used:
BMP-4 = molecular target: T1, BMP-4; test: In vitro interaction test, variant A: immobilized BMP-4, detection of binding of RGMA-Fc fusion proteins; settings: Working Example 3, FIG. 5; detection anti-human-Fc or anti-Myc
Description: Test Method 4: In Vitro Interaction Test for Determining the Interaction between RGMA and BMP-2 and -4
The interaction tests were carried out as described below:
Variant A: Immobilization of the BMP-2/ or -4 Protein and Detection of the Binding of Various RGMA-Fc Fusion Proteins
1. Plate: • Immunoplate Cert. MaxiSorp F96 (Nunc, 439454)
Recombinant human BMP-2, Catalog No.: 355-BM, Company: R&D Systems; Recombinant human RGM A, R&D Systems; Prod. #2495-RM, or
Recombinant human BMP-4, Catalog No.: 314-BM, Company: R&D Systems; • Concentration: 10 μg/mL • Volume used: 2.5 μg/mL in Na2CO3; addition: 50 μL per well • 1 hour at 37° C. in damp chamber
3. Washing step: • Wash 3× with PBS/[…] Tween 20
4. Blocking: • 3% BSA in PBS/0.02% Tween, 1 hour at 37° C. in damp chamber; addition: 200 μL per well
RGMA-Fc fragments, • 1 μg/mL initial concentration, then dilution down to 1:2 using PBS/0.02% Tween20 • […] • 1 hour at 37° C. in damp chamber
6. Washing step: • Wash 3× with PBS/0.02% Tween 20
Biotin anti-human Fc (R&D-Systems), Catalog No.: 709065; 1 mg/mL; • 1:200 in 0.6% BAS/PBS-T (0.02% Tween) • Addition: 50 μL per well • 1 hour at 37° C. in damp chamber
8. Secondary antibody: Strep. POD (Roche); Catalog No.: 11089153001 • 500 U; 1:5000 in 0.6% BAS/PBS-T (0.02% Tween) • Addition: 50 μL per well • 1 hour at 37° C. in damp chamber
9. Washing step: • Wash 3× with PBS/0.02% Tween 20
ImmunoPure TMB substrate kit; Pierce, #34021 • Development period: approximately 1-30 minutes • 1:1 mixture of […]; addition: 50 μL per well
11. Stop: • 2.5 M H2SO4; addition: 50 μL per well
The test was conducted according to test method 4, variant A above, with immobilization of BMP-4 (1 mg/mL). The binding of the fusion proteins was detected using anti-human-Fc or anti-Myc anti-rabbit (Invitrogen) antibodies.
The test was conducted according to test method 4, variant A above, with immobilization of BMP-4 (1 mg/mL). The binding of the fusion proteins was detected using anti-human-antibodies.

[1] = test system: BMP signalling (rhBMP-2-induced luciferase activity); test: BRE-Luc assay on BMP signalling in BMP-responsive C3H10-B12 cells; type: cell-based; settings: combined with rhBMP-2 at 50 ng/ml, 24 h
Description: Evaluation of the Agonistic or Antagonistic Effect of h RMG A on BMP Signalling using BRE-Luc Assay
a) Materials: • Three compounds were provided at 200 μg/ml.
fragment #788 (IgK/hRGM A 47-422/Xa cleavage site/Fc) • recombinant h BMP-2 (from CHO cells; #355-BM) and monoclonal anti-human BMP2/4 antibodies (#MAB3552) were obtained from R&D Systems Europe, Lille, France • Bright-Glo Luciferase assay kit were purchased from Promega
All experiments were performed in triplicate, and were repeated at two separate times.

Recombinant human BMP-4 = molecular target: T2, Recombinant human BMP-4; test: ELISA, BMP-4 immobilised, fragment titrated, detection with anti-human Fc antibody
Excerpt: The binding of the fusion proteins was detected using anti-human-antibodies.

SH-SY5Y cells = test: Neurite growth assay using SH-SY5Y cells (test method 1); type: cell-based, human; settings: FIG. 7A
Excerpt: Test Method 1: Illustration of the Effect of RGM Peptides in the Neurite Growth Assay, Using SH-SY5Y Cells
SH-SY5Y cells are human neuroblastoma cells. Blastomas are embryonic tumors which originate during tissue and organ formation. The origin of the blastoma cells is frequently unknown, since in early embryonic states the differentiation of many cells is still premature; i.e., the blastoma cells are a heterogeneous cell population. The cells of a neuroblastoma, referred to as neuroblasts, originate from the neural crest (structure of the embryonic state) from the autonomous nerve tissue, and are practically arrested in an immature stage. The cells in the present case originated from a clonal subculture of the neuroepitheliomal cell line SK-N-SH which were isolated in 1970 in a bone marrow biopsy of a child with metastases of the neuroblastomas.
Culture Medium for SH-SY5Y Cells (ECACC No. 94030304)
The medium was sterile-filtered using a Nunc 500-mL filter, and was stored in a refrigerator at 4° C. until used. Before use, the medium was heated to 37° C. in a water bath.
SH-SY5Y cells are epithelial, neuron-like cells which slowly adherently grow in a monolayer and never attain a confluence of 100% (maximum 80%). The cell culture was split 1:3 two times per week. Isolation of the cells requires incubation with trypsin for 1-3 minutes in an incubator.
Since this is a population of still immature precursor cells, it is possible to differentiate the cells using retinoic acid, so that a certain percentage of the cells acquire neurite-like extensions. For this purpose the culture was incubated in the medium with 10 μM retinoic acid directly in the culture dish or flask, depending on the test, for 3 days.
Microtiter plates (96-well) (containing collagen I-coated plates) were additionally coated with the hRGM A fragments. After washing two times with PBS the cells were seeded. […] In the quantitative analysis the SH-SY5Y cells grown on hRGM A fragments were compared to SH-SY5Y grown on collagen I alone. The neurite length of the cells was automatically measured and used for the analysis. […]

NTera-2 cells = test: Neurite growth test using NTera-2 cells (test method 2); type: cell-based, human; settings: FIG. 7B
Excerpt: Test Method 2: Illustration of the Effect of RGM Peptides in the Neurite Growth Test, Using NTera-2 Cells
The human pluripotent cancer cell line NTera2 (DSMZ ACC527) is established as a cell culture model. Neurites grow from cell aggregates and form a corona of neurites around the particular aggregate.
NTera-2 cells are human embryonic teratocarcinoma cells. A carcinoma is a cancerous tumor, whereas a teratoma or teratocarcinoma is a mixed tumor of the germ cells composed of various differentiated and undifferentiated tissues, and therefore, the same as for the SH-SY5Y culture, comprises a heterogeneous population. The tumor is usually present in an encapsulated form in the various types, such as hair, skin, teeth, muscle, and nerve tissue. The tumors typically originate in the ovaries, testes, abdominal cavity, or brain. The cell line was cloned from the Tera-2 line, obtained from a metastatic teratocarcinoma in a person.
NTera-2 cells are epithelial, adherently growing cells which form a monolayer. Due to the large number of granular particles which they contain, NTera-2 cells may be easily differentiated from the other cells. The cells were cultivated by 1:5 splitting twice a week. The cells of this mixed culture may be differentiated using retinoic acid in neuronal cells.
Culture Medium Fur Growth […]
In order to differentiate the cells it was necessary to introduce antibiotic into the culture medium of the cell line due to the fact that the cells remained in the same culture flask for three weeks. Previously, the undifferentiated culture had been detrypsinated and the cell count determined using a Neubauer counting chamber. […] 25 μL retinoic acid (10 μM) was readded to the medium under dim light conditions. […]
The culture was stored in an incubator at 37° C. with 5% CO2 gassing, and the medium was changed at the beginning and at the end of the week. […] After three weeks the cells were differentiated and were ready for use in experiments. […]
Different plate formats were used for the tests. For the isolation of protein, 6-well plates were necessary for recovering a sufficient quantity. […]

Molecule | binding to immobilized BMP-4 (BMP-4) | effect on BMP-2-induced luciferase activity [1] | binding result (Recombinant human BMP-4) | inhibition of neurite growth (SH-SY5Y cells) | inhibition of neurite growth (NTera-2 cells)
fragment #785: Fc fusion protein of human RGM A amino acids 47-90 (PCKILKCNSEFWSATSGSHAPASDDTPEFCAALRSYALCTRRTA; cysteine pairing not given here; also: Fc fusion protein (dimerising Fc)) | Significant concentration-dependent binding | did not significantly modify | – | – | –
B1 | – | – | binds | – | –
B2 | Significant concentration-dependent binding | – | – | inhibit the neurite growth | inhibit the neurite growth
B3 | – | – | binds | – | –
